Laboratory results: the Human Domainome abundance scans (Beltran et al. 2025)
± gives the uncertainty stated by the source.

B1: Formin-binding protein 4, residues 593 to 636; numbered along this chain, Q8N3X1 (parent)
chain: EINATPKGWSCHWDRDHRRYFYVNEQSGESQWEFPDGEEEEEES

Variants of: B1
Assay: abundance fitness (aPCA) (normalised: wild type 0, dead -1); higher = more abundant; growth selection in yeast, the domain comes from the species named
Conditions: Homo sapiens

Variant | abundance fitness
EINATPKGWSCHWDRDHRRYFYVNEQSGESQGEFPDGEEEEEES [W32G] | -0.28 ± 0.061
EINATPKGWSCHWDRDHRRYFYVNEQSGESQLEFPDGEEEEEES [W32L] | -0.002 ± 0.07
EINATPKGWSCHWDRDHRRYFYVNEQSGESQHEFPDGEEEEEES [W32H] | -0.157 ± 0.25
EINATPKGWSCHWDRDHRRYFYVNEQSGESQVEFPDGEEEEEES [W32V] | -0.093 ± 0.091
EINATPKGWSCHWDRDHRRYFYVNEQSGESQFEFPDGEEEEEES [W32F] | 0.047 ± 0.15
EINATPKGWSCHWDRDHRRYFYVNEQSGESQSEFPDGEEEEEES [W32S] | -0.23 ± 0.066
EINATPKGWSCHWDRDHRRYFYVNEQSGESQYEFPDGEEEEEES [W32Y] | -0.169 ± 0.12
EINATPKGWSCHWDRDHRRYFYVNEQSGESQIEFPDGEEEEEES [W32I] | 0.001 ± 0.13
EINATPKGWSCHWDRDHRRYFYVNEQSGESQKEFPDGEEEEEES [W32K] | -0.246 ± 0.079
EINATPKGWSCHWDRDHRRYFYVNEQSGESQMEFPDGEEEEEES [W32M] | -0.243 ± 0.098
EINATPKGWSCHWDRDHRRYFYVNEQSGESQREFPDGEEEEEES [W32R] | -0.324 ± 0.064
EINATPKGWSCHWDRDHRRYFYVNEQSGESQWEFNDGEEEEEES [P35N] | -0.74 ± 0.11
EINATPKGWSCHWDRDHRRYFYVNEQSGESQWEFMDGEEEEEES [P35M] | -0.734 ± 0.13
EINATPKGWSCHWDRDHRRYFYVNEQSGESQWEFDDGEEEEEES [P35D] | -0.712 ± 0.092
EINATPKGWSCHWDRDHRRYFYVNEQSGESQWEFSDGEEEEEES [P35S] | -0.651 ± 0.095
EINATPKGWSCHWDRDHRRYFYVNEQSGESQWEFWDGEEEEEES [P35W] | -0.782 ± 0.094
EINATPKGWSCHWDRDHRRYFYVNEQSGESQWEFRDGEEEEEES [P35R] | -0.661 ± 0.065
EINATPKGWSCHWDRDHRRYFYVNEQSGESQWEFYDGEEEEEES [P35Y] | -0.995 ± 0.18
EINATPKGWSCHWDRDHRRYFYVNEQSGESQWEFADGEEEEEES [P35A] | -0.455 ± 0.066
EINATPKGWSCHWDRDHRRYFYVNEQSGESQWEFKDGEEEEEES [P35K] | -0.482 ± 0.098

Variant | abundance fitness
EINATPKGWSCHWDRDHRRYFYVNEQSGESQWEFGDGEEEEEES [P35G] | -0.611 ± 0.062
EINATPKGWSCHWDRDHRRYFYVNEQSGESQWEFFDGEEEEEES [P35F] | -0.854 ± 0.23
EINATPKGWSCHWDRDHRRYFYVNEQSGESQWEFVDGEEEEEES [P35V] | -0.583 ± 0.071
EINATPKGWSCHWDRDHRRYFYVNEQSGESQWEFTDGEEEEEES [P35T] | -0.753 ± 0.099
EINATPKGWSCHWDRDHRRYFYVNEQSGESQWEFLDGEEEEEES [P35L] | -0.801 ± 0.076
EINATPKGWSCHWDRDHRRYFYVNEQSGESQWCFPDGEEEEEES [E33C] | -0.355 ± 0.25
EINATPKGWSCHWDRDHRRYFYVNEQSGESQWYFPDGEEEEEES [E33Y] | -0.892 ± 0.24
EINATPKGWSCHWDRDHRRYFYVNEQSGESQWKFPDGEEEEEES [E33K] | -0.232 ± 0.062
EINATPKGWSCHWDRDHRRYFYVNEQSGESQWVFPDGEEEEEES [E33V] | -0.456 ± 0.068
EINATPKGWSCHWDRDHRRYFYVNEQSGESQWMFPDGEEEEEES [E33M] | -0.341 ± 0.09
EINATPKGWSCHWDRDHRRYFYVNEQSGESQWSFPDGEEEEEES [E33S] | -0.184 ± 0.082
EINATPKGWSCHWDRDHRRYFYVNEQSGESQWIFPDGEEEEEES [E33I] | -0.284 ± 0.28
EINATPKGWSCHWDRDHRRYFYVNEQSGESQWTFPDGEEEEEES [E33T] | -0.078 ± 0.08
EINATPKGWSCHWDRDHRRYFYVNEQSGESQWQFPDGEEEEEES [E33Q] | -0.009 ± 0.085
EINATPKGWSCHWDRDHRRYFYVNEQSGESQWRFPDGEEEEEES [E33R] | -0.241 ± 0.055
EINATPKGWSCHWDRDHRRYFYVNEQSGESQWFFPDGEEEEEES [E33F] | -0.497 ± 0.081
EINATPKGWSCHWDRDHRRYFYVNEQSGESQWHFPDGEEEEEES [E33H] | -0.408 ± 0.17
EINATPKGWSCHWDRDHRRYFYVNEQSGESQWGFPDGEEEEEES [E33G] | -0.168 ± 0.067
EINATPKGWSCHWDRDHRRYFYVNEQSGESQWAFPDGEEEEEES [E33A] | -0.064 ± 0.062
EINATPKGWSCHWDRDHRRYFYVNEQSGESQWWFPDGEEEEEES [E33W] | -0.429 ± 0.063

Variant | abundance fitness
EINATPKGWSCHWDRDHRRYFYVNEQSGESQWDFPDGEEEEEES [E33D] | -0.237 ± 0.15
EINATPKGWSCHWDRDHRRYFYVNEQSGESQWNFPDGEEEEEES [E33N] | 0.031 ± 0.094
EINATPKGWSCHWDRDHRRYFYVNEQSGESQWLFPDGEEEEEES [E33L] | -0.401 ± 0.072
EINATPKGWSCHWDRDHRRYFYVNEQSGESQWPFPDGEEEEEES [E33P] | -0.59 ± 0.083
EINATPKGWSCHWDRDHRRYFYVNEQSGESQWEFPDGWEEEEES [E38W] | -0.314 ± 0.13
EINATPKGWSCHWDRDHRRYFYVNEQSGESQWEFPDGFEEEEES [E38F] | -0.217 ± 0.12
EINATPKGWSCHWDRDHRRYFYVNEQSGESQWEFPDGHEEEEES [E38H] | -0.2 ± 0.12
EINATPKGWSCHWDRDHRRYFYVNEQSGESQWEFPDGIEEEEES [E38I] | -0.021 ± 0.16
EINATPKGWSCHWDRDHRRYFYVNEQSGESQWEFPDGVEEEEES [E38V] | 0.008 ± 0.084
EINATPKGWSCHWDRDHRRYFYVNEQSGESQWEFPDGAEEEEES [E38A] | 0.018 ± 0.066
EINATPKGWSCHWDRDHRRYFYVNEQSGESQWEFPDGGEEEEES [E38G] | -0.051 ± 0.072
EINATPKGWSCHWDRDHRRYFYVNEQSGESQWEFPDGREEEEES [E38R] | -0.023 ± 0.059
EINATPKGWSCHWDRDHRRYFYVNEQSGESQWEFPDGCEEEEES [E38C] | -0.047 ± 0.071
EINATPKGWSCHWDRDHRRYFYVNEQSGESQWEFPDGQEEEEES [E38Q] | 0.061 ± 0.077
EINATPKGWSCHWDRDHRRYFYVNEQSGESQWEFPDGTEEEEES [E38T] | -0.014 ± 0.066
EINATPKGWSCHWDRDHRRYFYVNEQSGESQWEFPDGMEEEEES [E38M] | 0.058 ± 0.087
EINATPKGWSCHWDRDHRRYFYVNEQSGESQWEFPDGYEEEEES [E38Y] | -0.316 ± 0.39
EINATPKGWSCHWDRDHRRYFYVNEQSGESQWEFPDGSEEEEES [E38S] | 0.045 ± 0.07
